B1: mutant extending to residue 1018: C-terminally truncated porcine α2δ-1 subunit, residues 1019 to 1091 deleted (protein, listed as Sus scrofa)
chain: MAAGCLLALTLTLFQSLLIGPSSQEPFPSAVTIKSWVDKMQEDLVTLAKTASGVNQLVDIYEKYQDLYTVEPNNARQLVEIAARDIEKLLSNRSKALVRLALEAEKVQAAHQWREDFASNEVVYYNAKDDLDPEKNDSEPGSQRIKPVFIDDANFGRQISYQHAAVHIPTDIYEGSTIVLNELNWTSALDEVFKKNREEDPSLLWQVFGSATGLARYYPASPWVDNSRTPNKIDLYDVRRRPWYIQGAASPKDMLILVDVSGSVSGLTLKLIRTSVSEMLETLSDDDFVNVASFNSNAQDVSCFQHLVQANVRNKKVLKDAVNNITAKGITDYKKGFSFAFEQLLNYNVSRANCNKIIMLFTDGGEERAQEIFAKYNKDKKVRVFTFSVGQHNYDRGPIQWMACENKGYYYEIPSIGAIRINTQEYLDVLGRPMVLAGDKAKQVQWTNVYLDALELGLVITGTLPVFNITGQNENKTNLKNQLILGVMGVDVSLEDIKRLTPRFTLCPNGYYFAIDPNGYVLLHPNLQPKNPKSQEPVTLDFLDAELENDIKVEIRNKMIDGESGEKTFRTLVKSQDERYIDKGNRTYTWTPVNGTDYSLALVLPTYSFYYIKAKIEETITQARSKKGKMKDSETLKPDNFEESGYTFIAPRDYCNDLKISDNNTEFLLNFNEFIDRKTPNNPSCNTDLINRVLLDAGFTNELVQNYWSKQKNIKGVKARFVVTDGGITRVYPKEAGENWQENPETYEDSFYKRSLDNDNYVFTAPYFNKSGPGAYESGIMVSKAVEIYIQGKLLKPAVVGIKIDVNSWIENFTKTSIRDPCAGPVCDCKRNSDVMDCVILDDGGFLLMANHDDYTNQIGRFFGEIDPSLMRHLVNISVYAFNKSYDYQSVCEPGAAPKQGAGHRSAYVPSIADILHIGWWATAAAWSILQQFLLSLTFPRLLEAVEMEDDDFTASLSKQSCITEQTQYFFDNDSKSFSGVLDCGNCSRIFHVEKLMNTNLIFIMVESKGTCPCDTRL
B2: mutant extending to residue 1036: C-terminally truncated porcine α2δ-1 subunit, residues 1037 to 1091 deleted (protein, listed as Sus scrofa)
chain: MAAGCLLALTLTLFQSLLIGPSSQEPFPSAVTIKSWVDKMQEDLVTLAKTASGVNQLVDIYEKYQDLYTVEPNNARQLVEIAARDIEKLLSNRSKALVRLALEAEKVQAAHQWREDFASNEVVYYNAKDDLDPEKNDSEPGSQRIKPVFIDDANFGRQISYQHAAVHIPTDIYEGSTIVLNELNWTSALDEVFKKNREEDPSLLWQVFGSATGLARYYPASPWVDNSRTPNKIDLYDVRRRPWYIQGAASPKDMLILVDVSGSVSGLTLKLIRTSVSEMLETLSDDDFVNVASFNSNAQDVSCFQHLVQANVRNKKVLKDAVNNITAKGITDYKKGFSFAFEQLLNYNVSRANCNKIIMLFTDGGEERAQEIFAKYNKDKKVRVFTFSVGQHNYDRGPIQWMACENKGYYYEIPSIGAIRINTQEYLDVLGRPMVLAGDKAKQVQWTNVYLDALELGLVITGTLPVFNITGQNENKTNLKNQLILGVMGVDVSLEDIKRLTPRFTLCPNGYYFAIDPNGYVLLHPNLQPKNPKSQEPVTLDFLDAELENDIKVEIRNKMIDGESGEKTFRTLVKSQDERYIDKGNRTYTWTPVNGTDYSLALVLPTYSFYYIKAKIEETITQARSKKGKMKDSETLKPDNFEESGYTFIAPRDYCNDLKISDNNTEFLLNFNEFIDRKTPNNPSCNTDLINRVLLDAGFTNELVQNYWSKQKNIKGVKARFVVTDGGITRVYPKEAGENWQENPETYEDSFYKRSLDNDNYVFTAPYFNKSGPGAYESGIMVSKAVEIYIQGKLLKPAVVGIKIDVNSWIENFTKTSIRDPCAGPVCDCKRNSDVMDCVILDDGGFLLMANHDDYTNQIGRFFGEIDPSLMRHLVNISVYAFNKSYDYQSVCEPGAAPKQGAGHRSAYVPSIADILHIGWWATAAAWSILQQFLLSLTFPRLLEAVEMEDDDFTASLSKQSCITEQTQYFFDNDSKSFSGVLDCGNCSRIFHVEKLMNTNLIFIMVESKGTCPCDTRLLIQAEQTSDGPDPCDMVK
B3: mutant extending to residue 1063: C-terminally truncated porcine α2δ-1 subunit, residues 1064 to 1091 deleted (protein, listed as Sus scrofa)
chain: MAAGCLLALTLTLFQSLLIGPSSQEPFPSAVTIKSWVDKMQEDLVTLAKTASGVNQLVDIYEKYQDLYTVEPNNARQLVEIAARDIEKLLSNRSKALVRLALEAEKVQAAHQWREDFASNEVVYYNAKDDLDPEKNDSEPGSQRIKPVFIDDANFGRQISYQHAAVHIPTDIYEGSTIVLNELNWTSALDEVFKKNREEDPSLLWQVFGSATGLARYYPASPWVDNSRTPNKIDLYDVRRRPWYIQGAASPKDMLILVDVSGSVSGLTLKLIRTSVSEMLETLSDDDFVNVASFNSNAQDVSCFQHLVQANVRNKKVLKDAVNNITAKGITDYKKGFSFAFEQLLNYNVSRANCNKIIMLFTDGGEERAQEIFAKYNKDKKVRVFTFSVGQHNYDRGPIQWMACENKGYYYEIPSIGAIRINTQEYLDVLGRPMVLAGDKAKQVQWTNVYLDALELGLVITGTLPVFNITGQNENKTNLKNQLILGVMGVDVSLEDIKRLTPRFTLCPNGYYFAIDPNGYVLLHPNLQPKNPKSQEPVTLDFLDAELENDIKVEIRNKMIDGESGEKTFRTLVKSQDERYIDKGNRTYTWTPVNGTDYSLALVLPTYSFYYIKAKIEETITQARSKKGKMKDSETLKPDNFEESGYTFIAPRDYCNDLKISDNNTEFLLNFNEFIDRKTPNNPSCNTDLINRVLLDAGFTNELVQNYWSKQKNIKGVKARFVVTDGGITRVYPKEAGENWQENPETYEDSFYKRSLDNDNYVFTAPYFNKSGPGAYESGIMVSKAVEIYIQGKLLKPAVVGIKIDVNSWIENFTKTSIRDPCAGPVCDCKRNSDVMDCVILDDGGFLLMANHDDYTNQIGRFFGEIDPSLMRHLVNISVYAFNKSYDYQSVCEPGAAPKQGAGHRSAYVPSIADILHIGWWATAAAWSILQQFLLSLTFPRLLEAVEMEDDDFTASLSKQSCITEQTQYFFDNDSKSFSGVLDCGNCSRIFHVEKLMNTNLIFIMVESKGTCPCDTRLLIQAEQTSDGPDPCDMVKQPRYRKGPDVCFDNNALEDYTDCGGVS

assay: [3H]gabapentin binding of C-terminally truncated porcine α2δ-1 subunit mutants expressed in COS-7 cells; details: C-terminal deletions of the δ component, residues of SEQ ID NO:5
Protocol: All media contained 50 units/ml penicillin and 50 microgramm per ml streptomycin. COS-7 cells were maintained in Dulbecco's modified Eagle's medium+glutamax, 10% fetal bovine serum (gamma irradiated) in a 37° C./5% CO2 incubator and passaged by trypsinization. For transient expression experiments, 150-mm culture dishes were seeded with […] and incubated for 16 h. Cells were then washed twice with 30 ml of optiMEM-1 and transfected (t=0 h) with 30 microgramm of plasmid DNA by lipofectamine-mediated transfection in 21 ml of optiMEM-1. At t=6 h, a further 21 ml of optiMEM-1 was added. At t=24 h, the medium was replaced with 42 ml of optiMEM-1. At t=48 h, the cells were washed twice with 30 ml of phosphate-buffered saline and then harvested in 3 ml of buffer A ([…], 1 mM EGTA, 20% glycerol, 10 mm HEPES, pH 7.4, at 4° C.) plus 0.1 mM phenymethylsulfonyl fluoride using a cell scraper.
All subsequent operations were performed at 4° C. The cells were rotated on a Spiramix (Denley Instruments) for 30 min, centrifuged at 20,000×g for 5 min, resuspended in 1 ml of buffer A, recentrifuged at 20,000×g for 5 min, and finally resuspended in 400 microliter of buffer A. Membrane preparations were stored at −70° C. until required.
Protein concentrations were determined by the method of Bradford using bovine serum albumin as a standard. [^3H]Gabapentin binding assays were performed as described previously. For saturation analysis, incubations were performed in duplicate. All other incubations were performed in triplicate. SDS-polyacrylamide gel electrophoresis and Western blotting were performed using the Novex gel and buffer system (Novex Europe, Frankfurt, Germany). Molecular weights were determined by reference to Kaleidoscope markers (Bio-Rad). Detection was performed using the ECL system (Amersham).

Molecule | [^3H]gabapentin binding
B1 | exhibit gabapentin binding activity
B2 | exhibit gabapentin binding activity
B3 | exhibit gabapentin binding activity

— patent US6962973B1, “Porcine α2δ-1 calcium channel subunit cDNA and soluble secreted α2δ-1 subunit polypeptides” (Warner-Lambert Company, priority 1999, dated 2005)
